# Measurements published in US20230065493A1.
# Biological target: CPTL derived from para rubber tree (Hevea brasiliensis) (Hevea brasiliensis)
row,Substance,"Radioactivity (isoprene polymerization activity, 14C-IPP incorporation, proteoliposome) [dpm]"
1,CPT1 derived from para rubber tree (Hevea brasiliensis) (enzyme),290
2,cis-prenyltransferase (CPT) 6 derived from para rubber tree (Hevea brasiliensis) (enzyme),7660
3,cis-prenyltransferase (CPT) 7 derived from para rubber tree (Hevea brasiliensis) (enzyme),5040
